Numbering of substitutions follows the chain as printed.
B1: TNT71 (antibody, human IgG1, kappa, V domains shown)
VH: EVQLVESGGGLVQPGGSLRLSCAASGFTFSSYEMNWVRQAPGKGLEWVSYISSSGSTIYYADSVKGRFTISRDNAKNSLYLQMNSLRAEDTAVYYCARHSGYGTHWGVLFAYWGRGTLVTVSS
VL: DIQMTQSPSSLSASVGDRVTITCRASQDIHGYLNWYQQKPGKAPKLLIYYTSILHSGVPSRFSGSGSGTDFTLTISSLQPEDFATYFCQQGNTLPWTFGQGTKLEIKR
B2: TNT72 (antibody, human IgG1, kappa, V domains shown)
VH: QVQLQESGPGLVKPSDTLSLTCTVSGFAFSIYDMSWIRQPPGKGLEWIAYISSGGGTTYYNPSLKSRVTISVDTSKNQFSLKLSSVTAADTAVYYCARHSGYGTHWGVLFAYWGRGTLVTVSS
VL: B1 VL
B3: TNT77 (antibody, human IgG1, kappa, V domains shown)
VH: EVQLVESGGGLVQPGGSLRLSCAASGFAFSIYDMSWVRQAPGKGLEWVAYISSGGGTTYYPDTVKGRFTISRDNSKNTLYLQMNSLRAEDTAVYYCARHSGYGTHWGVLFAYWGRGTLVTVSS
VL: B1 VL with D28S, H30S, G31S, Y50A, T51A, I53S, H55Q, F87Y
B4: TNT82 (antibody, human IgG1, kappa, V domains shown)
VH: B3 VH with E1Q, V5L, L11V, S35N, A49S, Y50A, P61A, T63S, S75A, T78S
VL: EIVLTQSPATLSLSPGERATLSCRASQDIHGYLNWYQQKPGQAPRLLIYYTSILHSGIPARFSGSGPGTDFTLTISSLEPEDFAVYYCQQGNTLPWTFGGGTKLEIKR
B5: TNT83 (antibody, human IgG1, kappa, V domains shown)
VH: B1 VH
VL: B4 VL
B6: TNT88 (antibody, human IgG1, kappa, V domains shown)
VH: B2 VH
VL: DIVMTQTPLSLSVTPGQPASISCRASQDIHGYLNWYQQKPGQSPQLLIYYTSILHSGVPDRFSGSGSGTDFTLKISRVEAEDVGVYFCQQGNTLPWTFGGGTKLEIKR

These binders were tested against T1, human CD22 (d1 to d7 domain according to NP_001762.2) (human, UniProt P20273 20-687) (assay: SPR; summary table, column 'CD22 KD (nM)').
T1 construct: domain: d1 to d7 domain; also called human CD22-gly; Siglec-2

Row | Binder | Kd [nM]
1 | B1 | 0.3
2 | B2 | 0.7
3 | B3 | 10
4 | B4 | 0.9
5 | B5 | 6
6 | B6 | 1.3

What follows are binders tested against T2, human CD22 on B cells of human PBMCs (human, UniProt P20273 20-847) (assay: flow cytometry; Alexa Fluor 647-labelled antibody, human PBMCs).
T2 construct: whole, on cells; also called CD22 on human B cells
Experimental: (§1) Binding of humanized anti-CD22 antibodies to human or cynomolgus PBMCs was measured by flow cytometry. Trima residuals were received from Vitalant and cynomolgus monkey whole blood were received from BioIVT. Both were diluted 1:4 with Phosphate Buffered Saline (PBS, Gibco). Diluted blood was split into two tubes and underplayed with 15 mL Ficoll-Paque (GE Healthcare). Tubes were centrifuged for 30 minutes at 400×g. PBMCs were collected from the interface, washed and resuspended in FACS buffer (PBS with 0.5% Bovine Serum Albumin (Gibco)). 100K PBMCs from human and cynomolgus monkey were plated in 96-well plates and pelleted by centrifugation for five minutes at 400×g and stained at 4° C. in 100 μl Fixable Viability Dye eFluor 780 (Thermo Fisher) diluted 1:4000 in PBS. Cells were centrifuged and stained at 4° C. in 100 μl FACS buffer for 30 minutes containing FcR Blocking Reagent (Miltenyi Biotec), anti-CD20 and Alexa Fluor 647 conjugated CD22 binding antibodies, which were labeled using Molecular Probes Alexa Fluor 647 Protein Labeling kit (Molecular Probes) according to manufacturer's protocol. Cells were centrifuged and washed twice in 200 μl FACS buffer and fixed in 100 μl 0.5% paraformaldehyde. Cells were analyzed on Attune NxT Flow Cytometer (Thermo Fisher), with subsequent data analysis by Flowjo 10.7 (Treestar). Dead cells were excluded by gating on the eFluor 780-negative population. CD20+ cells were gated to identify B cells and median fluorescent intensity for CD22 was determined.
(§2) The fold increase in binding was determined by calculating the ratio of CD22 median fluorescent intensity on CD20⁺ over CD20⁻ cells.

Row | Binder | CD22: CD20+/CD20- (ratio of median fluorescent intensity) [fold]
7 | B3 | 20.9
8 | B4 | 23.9
9 | B5 | 23
10 | B6 | 26.2

These binders were tested against T3, cynomolgus monkey CD22 on B cells of cynomolgus PBMCs (cynomolgus monkey) (assay: flow cytometry; Alexa Fluor 647-labelled antibody, cynomolgus PBMCs).
T3 construct: whole, on cells; also called cynomolgus CD22; Cyno CD22
Experimental: as §1, §2

Row | Binder | CD22: CD20+/CD20- (ratio of median fluorescent intensity) [fold]
11 | B3 | 2.6
12 | B4 | 12.6
13 | B5 | 10.8
14 | B6 | 14.7

Each binder was assayed against T1, human CD22 (d1 to d7 domain according …) (assay: SPR; mAb supernatant captured on protein A chip, human CD22 injected).
Experimental: Binding of humanized anti-CD22 antibodies to human CD22 was measured by surface plasmon resonance (SPR). For assessment of binding by SPR, biotinylated protein A (15 μg/mL) was immobilized to the surface of an NLC chip. 30 μL of mAb supernatant was added to 150 μL of PBS-T and captured over the protein A surface. Serial dilutions of human CD22-gly (300 nM, 3× dilution) were injected over the mAb-coated chips, and binding kinetics were determined. Chips were regenerated using 4:1 v/v of Pierce IgG elution butter/4M NaCl.

Row | Binder | Kd [nM] | koff [s⁻¹] | kon [M⁻¹ s⁻¹]
15 | B1 | 5.2 | – | –
16 | B2 | 0.655 | – | –
17 | B3 | 10.2 | 0.00207 | 203000
18 | B4 | 0.937 | 0.000156 | 167000
19 | B5 | 5.94 | 0.0016 | 269000
20 | B6 | 1.34 | 0.000289 | 215000

Each binder was assayed against T1, human CD22 (d1 to d7 domain according …) (assay: SPR; purified naked mAb captured on protein A chip, human CD22 injected).
Experimental: To assess if CpG conjugation affects the binding of respective humanized anti-CD22 to human CD22, SPR assay was carried out. […] Briefly, biotinylated protein A (15 μg/mL) was immobilized to the surface of an NLC chip. 30 nM of purified naked mAb or CpG conjugated mAb solution in PBS-T was used for capture over the protein A surface. Serial dilutions of human CD22 (300 nM, 3× dilution) were injected over the mAb-coated chips, and binding kinetics were determined. Chips were regenerated using 4:1 v/v of Pierce IgG elution butter/4M NaCl.

Row | Binder | Kd [nM]
21 | B1 | 0.263
22 | B2 | 0.922

Each binder was assayed against T2, human CD22 on B cells of human PBMCs (assay: flow cytometry; Alexa Fluor 647-labelled antibody on CD20+ B cells of human PBMCs).
Experimental: as §1

Row | Binder | CD22 Median Fluorescent Intensity on CD20+ cells
23 | B1 | 1460
24 | B2 | 1560
25 | B3 | 1320
26 | B4 | 1520
27 | B5 | 1490
28 | B6 | 1530

These binders were tested against T3, cynomolgus monkey CD22 on B cells of … (assay: flow cytometry; Alexa Fluor 647-labelled antibody on CD20+ B cells of cynomolgus PBMCs).
Experimental: as §1

Row | Binder | CD22 Median Fluorescent Intensity on CD20+ cells
29 | B1 | 1420
30 | B2 | 1370
31 | B3 | 236
32 | B4 | 1170
33 | B5 | 1400
34 | B6 | 1270

Reference: patent US20220380768A1 (TALLAC THERAPEUTICS, published 2022)
